Results as given in patent US20260265403A1 (TJ BIOPHARMA SHANGHAI, published 2026).

T1: Human CD24 (human, UniProt P25063 27-59, limits assumed)
T1 chain (looked up): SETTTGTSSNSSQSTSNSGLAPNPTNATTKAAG


Key:
Human CD24 [1] = target: T1, Human CD24; assay: SPR affinity ranking, 1:1 binding, analyte conc. 19.71 nM
Human CD24 [2] = target: T1, Human CD24; assay: SPR, second 1:1 binding column set
Human CD24 [3] = target: T1, Human CD24; assay: affinity ranking; antibody as ligand, Human CD24 as analyte

| Binder | Kd (Human CD24 [1]) [nM] | koff (Human CD24 [1]) [s⁻¹] | kon (Human CD24 [1]) [M⁻¹ s⁻¹] | Kd (Human CD24 [2]) [nM] | koff (Human CD24 [2]) [s⁻¹] | kon (Human CD24 [2]) [M⁻¹ s⁻¹] | Kd (Human CD24 [3]) [nM] | koff (Human CD24 [3]) [s⁻¹] | kon (Human CD24 [3]) [M⁻¹ s⁻¹] |
| --- | --- | --- | --- | --- | --- | --- | --- | --- | --- |
| Antibody No 2, lead clone of 4451H (HC N35G; LC S30K, T97I) (antibody, V domains shown) VH: QVQLVQSGAEVKKPGASVKVSCKASGYDFTGYHMGWVRQAPGQGLEWMGEINPITSDKTFNQKFKSRVTMTRDTSISTAYMELSRLRSDDTAVYYCARRDYGTSLDYWGQGTTVTVSS VL: DIQLTQSPSFLSASVGDRVTITCRASKSIKKYLAWYQQKPGKAPKLLIYAGSTLHSGIPSRFRGSGSGTEFTLTISSLQPEDFATYYCQQHNEYPIIFGQGTKLEIK | 8.78 | 0.0249 | 2.83e+06 | – | – | – | – | – | – |
| Antibody No 5, lead clone of 4451H (HC N35G; LC S30K) (antibody, V domains shown) VH: QVQLVQSGAEVKKPGASVKVSCKASGYDFTGYHMGWVRQAPGQGLEWMGEINPITSDKTFNQKFKSRVTMTRDTSISTAYMELSRLRSDDTAVYYCARRDYGTSLDYWGQGTTVTVSS VL: DIQLTQSPSFLSASVGDRVTITCRASKSIKKYLAWYQQKPGKAPKLLIYAGSTLHSGIPSRFRGSGSGTEFTLTISSLQPEDFATYYCQQHNEYPITFGQGTKLEIK | 7.89 | 0.0345 | 4.37e+06 | – | – | – | – | – | – |
| Antibody No 3, lead clone of 4451H (HC N35G; LC L33G, T97I) (antibody, V domains shown) VH: QVQLVQSGAEVKKPGASVKVSCKASGYDFTGYHMGWVRQAPGQGLEWMGEINPITSDKTFNQKFKSRVTMTRDTSISTAYMELSRLRSDDTAVYYCARRDYGTSLDYWGQGTTVTVSS VL: DIQLTQSPSFLSASVGDRVTITCRASKSISKYGAWYQQKPGKAPKLLIYAGSTLHSGIPSRFRGSGSGTEFTLTISSLQPEDFATYYCQQHNEYPIIFGQGTKLEIK | 7.09 | 0.00827 | 1.17e+06 | 4.6 | 0.00766 | 1.66e+06 | – | – | – |
| Antibody No 8, lead clone of 4451H (HC T59Y; LC K27A, T97I) (antibody, V domains shown) VH: QVQLVQSGAEVKKPGASVKVSCKASGYDFTGYHMNWVRQAPGQGLEWMGEINPITSDKYFNQKFKSRVTMTRDTSISTAYMELSRLRSDDTAVYYCARRDYGTSLDYWGQGTTVTVSS VL: DIQLTQSPSFLSASVGDRVTITCRASASISKYLAWYQQKPGKAPKLLIYAGSTLHSGIPSRFRGSGSGTEFTLTISSLQPEDFATYYCQQHNEYPIIFGQGTKLEIK | 15.8 | 0.0196 | 1.24e+06 | – | – | – | – | – | – |
| Antibody No 4, lead clone of 4451H (HC N35G; LC K27A) (antibody, V domains shown) VH: QVQLVQSGAEVKKPGASVKVSCKASGYDFTGYHMGWVRQAPGQGLEWMGEINPITSDKTFNQKFKSRVTMTRDTSISTAYMELSRLRSDDTAVYYCARRDYGTSLDYWGQGTTVTVSS VL: DIQLTQSPSFLSASVGDRVTITCRASASISKYLAWYQQKPGKAPKLLIYAGSTLHSGIPSRFRGSGSGTEFTLTISSLQPEDFATYYCQQHNEYPITFGQGTKLEIK | 8.97 | 0.0107 | 1.19e+06 | – | – | – | – | – | – |
| Antibody No 6, lead clone of 4451H (HC N35G; LC L33G) (antibody, V domains shown) VH: QVQLVQSGAEVKKPGASVKVSCKASGYDFTGYHMGWVRQAPGQGLEWMGEINPITSDKTFNQKFKSRVTMTRDTSISTAYMELSRLRSDDTAVYYCARRDYGTSLDYWGQGTTVTVSS VL: DIQLTQSPSFLSASVGDRVTITCRASKSISKYGAWYQQKPGKAPKLLIYAGSTLHSGIPSRFRGSGSGTEFTLTISSLQPEDFATYYCQQHNEYPITFGQGTKLEIK | 5.11 | 0.00796 | 1.56e+06 | 3.86 | 0.00763 | 1.98e+06 | – | – | – |
| Antibody No 7, lead clone of 4451H (HC N35G; LC T97I) (antibody, V domains shown) VH: QVQLVQSGAEVKKPGASVKVSCKASGYDFTGYHMGWVRQAPGQGLEWMGEINPITSDKTFNQKFKSRVTMTRDTSISTAYMELSRLRSDDTAVYYCARRDYGTSLDYWGQGTTVTVSS VL: DIQLTQSPSFLSASVGDRVTITCRASKSISKYLAWYQQKPGKAPKLLIYAGSTLHSGIPSRFRGSGSGTEFTLTISSLQPEDFATYYCQQHNEYPIIFGQGTKLEIK | 16.9 | 0.0141 | 836000 | – | – | – | – | – | – |
| Antibody No 9, lead clone of 4451H (HC T59Y; LC S30K, T97I) (antibody, V domains shown) VH: QVQLVQSGAEVKKPGASVKVSCKASGYDFTGYHMNWVRQAPGQGLEWMGEINPITSDKYFNQKFKSRVTMTRDTSISTAYMELSRLRSDDTAVYYCARRDYGTSLDYWGQGTTVTVSS VL: DIQLTQSPSFLSASVGDRVTITCRASKSIKKYLAWYQQKPGKAPKLLIYAGSTLHSGIPSRFRGSGSGTEFTLTISSLQPEDFATYYCQQHNEYPIIFGQGTKLEIK | 11.4 | 0.06 | 5.27e+06 | – | – | – | – | – | – |

More lines, now with the values ahead:

| Kd (Human CD24 [1]) [nM] | koff (Human CD24 [1]) [s⁻¹] | kon (Human CD24 [1]) [M⁻¹ s⁻¹] | Kd (Human CD24 [2]) [nM] | koff (Human CD24 [2]) [s⁻¹] | kon (Human CD24 [2]) [M⁻¹ s⁻¹] | Kd (Human CD24 [3]) [nM] | koff (Human CD24 [3]) [s⁻¹] | kon (Human CD24 [3]) [M⁻¹ s⁻¹] | Binder |
| --- | --- | --- | --- | --- | --- | --- | --- | --- | --- |
| 8.3 | 0.0604 | 7.28e+06 | – | – | – | – | – | – | Antibody No 14, lead clone of 4451H (HC T59Y; LC T97I) (antibody, V domains shown) VH: QVQLVQSGAEVKKPGASVKVSCKASGYDFTGYHMNWVRQAPGQGLEWMGEINPITSDKYFNQKFKSRVTMTRDTSISTAYMELSRLRSDDTAVYYCARRDYGTSLDYWGQGTTVTVSS VL: DIQLTQSPSFLSASVGDRVTITCRASKSISKYLAWYQQKPGKAPKLLIYAGSTLHSGIPSRFRGSGSGTEFTLTISSLQPEDFATYYCQQHNEYPIIFGQGTKLEIK |
| 7.51 | 0.016 | 2.13e+06 | 6.99 | 0.00808 | 1.16e+06 | – | – | – | Antibody No 16, lead clone of 4451H (HC N35G, T59Y; LC S30K) (antibody, V domains shown) VH: QVQLVQSGAEVKKPGASVKVSCKASGYDFTGYHMGWVRQAPGQGLEWMGEINPITSDKYFNQKFKSRVTMTRDTSISTAYMELSRLRSDDTAVYYCARRDYGTSLDYWGQGTTVTVSS VL: DIQLTQSPSFLSASVGDRVTITCRASKSIKKYLAWYQQKPGKAPKLLIYAGSTLHSGIPSRFRGSGSGTEFTLTISSLQPEDFATYYCQQHNEYPITFGQGTKLEIK |
| 8.7 | 0.0175 | 2.01e+06 | – | – | – | – | – | – | Antibody No 10, lead clone of 4451H (HC T59Y; LC L33G, T97I) (antibody, V domains shown) VH: QVQLVQSGAEVKKPGASVKVSCKASGYDFTGYHMNWVRQAPGQGLEWMGEINPITSDKYFNQKFKSRVTMTRDTSISTAYMELSRLRSDDTAVYYCARRDYGTSLDYWGQGTTVTVSS VL: DIQLTQSPSFLSASVGDRVTITCRASKSISKYGAWYQQKPGKAPKLLIYAGSTLHSGIPSRFRGSGSGTEFTLTISSLQPEDFATYYCQQHNEYPIIFGQGTKLEIK |
| 9.68 | 0.0237 | 2.45e+06 | – | – | – | – | – | – | Antibody No 13, lead clone of 4451H (HC T59Y; LC L33G) (antibody, V domains shown) VH: QVQLVQSGAEVKKPGASVKVSCKASGYDFTGYHMNWVRQAPGQGLEWMGEINPITSDKYFNQKFKSRVTMTRDTSISTAYMELSRLRSDDTAVYYCARRDYGTSLDYWGQGTTVTVSS VL: DIQLTQSPSFLSASVGDRVTITCRASKSISKYGAWYQQKPGKAPKLLIYAGSTLHSGIPSRFRGSGSGTEFTLTISSLQPEDFATYYCQQHNEYPITFGQGTKLEIK |
| 7.05 | 0.00755 | 1.07e+06 | 3.98 | 0.00509 | 1.28e+06 | – | – | – | Antibody No 15 (4451HM15), lead clone of 4451H (HC N35G, T59Y; LC K27A) (antibody, V domains shown) VH: QVQLVQSGAEVKKPGASVKVSCKASGYDFTGYHMGWVRQAPGQGLEWMGEINPITSDKYFNQKFKSRVTMTRDTSISTAYMELSRLRSDDTAVYYCARRDYGTSLDYWGQGTTVTVSS VL: DIQLTQSPSFLSASVGDRVTITCRASASISKYLAWYQQKPGKAPKLLIYAGSTLHSGIPSRFRGSGSGTEFTLTISSLQPEDFATYYCQQHNEYPITFGQGTKLEIK |
| 14.1 | 0.0171 | 1.21e+06 | – | – | – | – | – | – | Antibody No 11, lead clone of 4451H (HC T59Y; LC K27A) (antibody, V domains shown) VH: QVQLVQSGAEVKKPGASVKVSCKASGYDFTGYHMNWVRQAPGQGLEWMGEINPITSDKYFNQKFKSRVTMTRDTSISTAYMELSRLRSDDTAVYYCARRDYGTSLDYWGQGTTVTVSS VL: DIQLTQSPSFLSASVGDRVTITCRASASISKYLAWYQQKPGKAPKLLIYAGSTLHSGIPSRFRGSGSGTEFTLTISSLQPEDFATYYCQQHNEYPITFGQGTKLEIK |
| 11.1 | 0.168 | 1.52e+07 | – | – | – | – | – | – | Antibody No 12, lead clone of 4451H (HC T59Y; LC S30K) (antibody, V domains shown) VH: QVQLVQSGAEVKKPGASVKVSCKASGYDFTGYHMNWVRQAPGQGLEWMGEINPITSDKYFNQKFKSRVTMTRDTSISTAYMELSRLRSDDTAVYYCARRDYGTSLDYWGQGTTVTVSS VL: DIQLTQSPSFLSASVGDRVTITCRASKSIKKYLAWYQQKPGKAPKLLIYAGSTLHSGIPSRFRGSGSGTEFTLTISSLQPEDFATYYCQQHNEYPITFGQGTKLEIK |
| – | – | – | – | – | – | 19.7 | 0.0229 | 1.16e+06 | VH2 + VL4 (humanized 4451) (antibody, V domains shown, IgG expressed in HEK293) VH: QVQLVQSGAEVKKPGASVKVSCKASGYDFTGYHMNWVRQAPGQGLEWIGEINPITSDKTFNQKFKSRVTMTVDTSISTAYMELSRLRSDDTAVYYCARRDYGTSLDYWGQGTTVTVSS VL: DIQLTQSPSFLSASVGDRVTIYCRASKSISKYLAWYQQKPGKAPRLLIYAGSTLHSGIPSRFRGSGSGTEFTLTISSLQPEDFATYYCQQHNEYPITFGQGTKLEIK |
| 4.42 | 0.0069 | 1.56e+06 | 3.41 | 0.00419 | 1.23e+06 | – | – | – | Antibody No 17, lead clone of 4451H (HC N35G, T59Y; LC L33G) (antibody, V domains shown) VH: QVQLVQSGAEVKKPGASVKVSCKASGYDFTGYHMGWVRQAPGQGLEWMGEINPITSDKYFNQKFKSRVTMTRDTSISTAYMELSRLRSDDTAVYYCARRDYGTSLDYWGQGTTVTVSS VL: DIQLTQSPSFLSASVGDRVTITCRASKSISKYGAWYQQKPGKAPKLLIYAGSTLHSGIPSRFRGSGSGTEFTLTISSLQPEDFATYYCQQHNEYPITFGQGTKLEIK |
| 8.83 | 0.015 | 1.7e+06 | – | – | – | – | – | – | Antibody No 18, lead clone of 4451H (HC N35G, T59Y; LC T97I) (antibody, V domains shown) VH: QVQLVQSGAEVKKPGASVKVSCKASGYDFTGYHMGWVRQAPGQGLEWMGEINPITSDKYFNQKFKSRVTMTRDTSISTAYMELSRLRSDDTAVYYCARRDYGTSLDYWGQGTTVTVSS VL: DIQLTQSPSFLSASVGDRVTITCRASKSISKYLAWYQQKPGKAPKLLIYAGSTLHSGIPSRFRGSGSGTEFTLTISSLQPEDFATYYCQQHNEYPIIFGQGTKLEIK |
